According to publication PMC4720288:

Target: human MALT1_(Casp-Ig3)(338–719) (human) (UniProt Q9UDY8)
Experiment: crystal structure; in-house X-ray structure of apo MALT1_(Casp-Ig3), data not published

For “human MALT1_(Casp-Ig3)(338–719) (from UniProt Q9UDY8 338-719) (domain or fragment)”, the stoichiometry N was 2.
